Data from the supplement of paper PMC6757056.
± gives the standard deviation of the averaged measurements.

B1: library; a variant is named by its letters at N, in order (parent)
chain: GCUGUCACCGGUGCUUGGUACGUUAUAUUCAGCCGGUCUGAUGAGUCUNNNNNNAGACGAAACAGC

Columns and labels:
(6R,S)-folinic acid [1] = variants of: B1; test: normalized RNA/DNA level without ligand (relative to sTRSVctl = 100) (log10 (% of sTRSVctl)); HEK293T overexpressing SLC46A1; higher = less ribozyme self-cleavage, higher mRNA level; conditions: without (6R,S)-folinic acid; ligand present: no
Outline: (§1)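 Library plasmids encoding reporter-linked ribozyme switches (mCherry, or eGFP for some folinic acid experiments) were transfected into HEK293T at 4 µg per 6-well well. Ligand, when used, was added 1 h before transfection. Total RNA was extracted with EDTA 72 h later, then reverse-transcribed, amplified, barcoded and sequenced. RNA level was RNA reads over DNA reads, divided by a spiked-in non-cleaving control (or the top 25 sequences), ×100, log10; only sequences with ≥100 DNA reads were kept.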

(6R,S)-folinic acid [2] = variants of: B1; test: normalized RNA/DNA level with ligand (relative to sTRSVctl = 100) (log10 (% of sTRSVctl)); HEK293T overexpressing SLC46A1; ligand concentration (+) RNA-Seq: 6 mM; higher = less ribozyme self-cleavage, higher mRNA level; conditions: with (6R,S)-folinic acid; ligand present: yes
Outline: as §1

Variant	normalized RNA/DNA level without ligand (log10) ((6R,S)-folinic acid [1])	normalized RNA/DNA level with ligand (log10) ((6R,S)-folinic acid [2])
CUGCUG	2.044 ± 0.0052	2.03 ± 0.041
CUGUAG	1.925 ± 0.016	2.02 ± 0.041
CUGUAA	1.958 ± 0.018	2.02 ± 0.037
CUGUAC	1.992 ± 0.017	2.013 ± 0.013
UUGAGU	1.925 ± 0.015	1.96 ± 0.025
CUUACG	2.007 ± 0.0022	2 ± 0.037
CUUACU	2 ± 0.023	2.02 ± 0.047
CUUACA	2.004 ± 0.01	2 ± 0.022
CUUACC	2.022 ± 0.0014	1.995 ± 0.016
CUGCGA	2.053 ± 0.0059	2.06 ± 0.037
CUGCGC	2.06 ± 0.0038	2.009 ± 0.019
CUGCGU	2.059 ± 0.011	2.06 ± 0.039
CUGCGG	2.052 ± 0.0072	2.066 ± 0.0066
UUGGCC	2.046 ± 0.019	2.03 ± 0.05
UUGGCA	2.013 ± 0.011	2.06 ± 0.035
UUGGCU	2.055 ± 0.0023	2.04 ± 0.041
UUGGCG	1.8766 ± 0.00065	2.03 ± 0.062
AUUCCC	2.018 ± 0.019	1.99 ± 0.052
AUUCCG	1.997 ± 0.0068	2.037 ± 0.018
AUUCCA	2.009 ± 0.0091	2.02 ± 0.047
CUGCAC	2.037 ± 0.0035	2.015 ± 0.014
CUGCAU	1.9723 ± 0.001	1.99 ± 0.044
CUGCAA	2.037 ± 0.02	2.05 ± 0.025
AUGCUG	1.986 ± 0.003	2 ± 0.017

Variant	normalized RNA/DNA level without ligand (log10) ((6R,S)-folinic acid [1])	normalized RNA/DNA level with ligand (log10) ((6R,S)-folinic acid [2])
AUGCUA	2.021 ± 0.0056	2.01 ± 0.024
AUGCUU	2.006 ± 0.018	2.037 ± 0.014
AUGCUC	2.053 ± 0.0063	2.03 ± 0.053
GUGCGG	1.968 ± 0.014	2.0481 ± 0.00061
GUGCGC	1.965 ± 0.01	2.01 ± 0.057
GUUAGA	2 ± 0.02	2.021 ± 0.0089
GUUAGC	1.92 ± 0.025	1.99 ± 0.02
GUUAGU	1.979 ± 0.0095	2.03 ± 0.044
AUGGUC	2.055 ± 0.0035	2.04 ± 0.029
CUGGUC	2.057 ± 0.0038	2.04 ± 0.044
CUGGUU	1.97 ± 0.04	1.99 ± 0.046
CUGGUG	1.982 ± 0.0025	2.04 ± 0.037
CUGGUA	1.95 ± 0.023	1.98 ± 0.034
GUUCAG	1.963 ± 0.0042	2 ± 0.043
GUUCAU	2.019 ± 0.0083	2.02 ± 0.034
CUGGAG	1.883 ± 0.01	1.99 ± 0.029
CUGGAC	1.9905 ± 0.0006	2 ± 0.038
AUGCCU	2.011 ± 0.0046	2.015 ± 0.0068
AUGCCG	1.979 ± 0.0032	2 ± 0.023
AUGCCC	2.037 ± 0.016	2.02 ± 0.041
AUGCCA	2.011 ± 0.0049	2.011 ± 0.01
GUGUUA	1.988 ± 0.015	2.01 ± 0.025
GUGUUC	2.01 ± 0.031	2.012 ± 0.0073
GUGUUU	2.03 ± 0.027	2.05 ± 0.036

Variant	normalized RNA/DNA level without ligand (log10) ((6R,S)-folinic acid [1])	normalized RNA/DNA level with ligand (log10) ((6R,S)-folinic acid [2])
GUGUUG	1.9429 ± 0.0015	2.014 ± 0.015
GUUCCG	2.032 ± 0.011	2.02 ± 0.04
GUUCCC	2.075 ± 0.018	2.052 ± 0.017
UUGCUC	2.046 ± 0.01	2.02 ± 0.052
UUGCUG	1.978 ± 0.004	2.01 ± 0.05
UUGCUU	2.016 ± 0.013	2.04 ± 0.04
CUUCAU	2 ± 0.0049	1.99 ± 0.037
CUUCAG	2.027 ± 0.015	2.099 ± 0.011
CUUCAC	2.027 ± 0.0051	1.988 ± 0.011
CUUCAA	2.023 ± 0.0088	2.05 ± 0.042
AUGCAG	1.92 ± 0.022	2 ± 0.032
AUGCAU	1.934 ± 0.011	2.006 ± 0.005
CUGUGU	1.997 ± 0.017	2.011 ± 0.004
CUGUGA	2.028 ± 0.0096	2.04 ± 0.035
CUGUGG	1.96 ± 0.0026	2.059 ± 0.016
CUGUGC	2.01 ± 0.05	2.02 ± 0.028
UUUCAU	1.993 ± 0.0093	2.02 ± 0.022
UUUCAC	2.0237 ± 0.0014	2.0028 ± 0.00095
UUUCAA	1.997 ± 0.0084	2.01 ± 0.029
UUGUUU	2.065 ± 0.018	2.08 ± 0.035
UUGUUC	2.056 ± 0.017	2.08 ± 0.047
UUGUUG	1.96 ± 0.026	2.05 ± 0.027
CUUAUA	1.961 ± 0.019	2 ± 0.029
CUUAUC	2.089 ± 0.009	2.08 ± 0.033

Variant	normalized RNA/DNA level without ligand (log10) ((6R,S)-folinic acid [1])	normalized RNA/DNA level with ligand (log10) ((6R,S)-folinic acid [2])
CUUAUG	2.013 ± 0.005	2.0211 ± 0.00067
GUGGCG	1.993 ± 0.0028	2.015 ± 0.0038
GUGGCU	2.047 ± 0.0085	2.06 ± 0.028
UUGAUA	1.978 ± 0.0072	2.03 ± 0.029
UUGAUC	2.051 ± 0.0013	2.01 ± 0.022
UUGAUU	2.017 ± 0.012	2.027 ± 0.013
CUGCCG	2.038 ± 0.012	2.075 ± 0.0058
CUGCCU	2.034 ± 0.011	2.003 ± 0.006
CUGCCA	2.05 ± 0.027	2.04 ± 0.033
UUUAUC	2.103 ± 0.0028	2.065 ± 0.016
UUUAUA	1.993 ± 0.015	2 ± 0.03
UUUAUU	1.988 ± 0.0096	2.03 ± 0.033
UUGUCC	2.008 ± 0.0064	2.045 ± 0.02
UUGUCG	1.94 ± 0.032	2.03 ± 0.034
UUGUCU	2.053 ± 0.0052	2.09 ± 0.022
UUGUCA	1.976 ± 0.015	2.042 ± 0.0095
AUUCAC	2.04 ± 0.0098	1.994 ± 0.019
AUUCAU	2 ± 0.026	2.0232 ± 0.0017
AUUCAA	1.9988 ± 0.0016	2.01 ± 0.029
UUGGGC	2.036 ± 0.0078	2.037 ± 0.0067
UUGGGA	1.881 ± 0.0033	2.03 ± 0.039
AUUACG	1.941 ± 0.005	2.026 ± 0.011
AUUACA	1.992 ± 0.017	2.01 ± 0.059
AUUACC	2.019 ± 0.0035	2 ± 0.025

Variant	normalized RNA/DNA level without ligand (log10) ((6R,S)-folinic acid [1])	normalized RNA/DNA level with ligand (log10) ((6R,S)-folinic acid [2])
AUUACU	2.042 ± 0.012	2.04 ± 0.031
CUGAGG	1.948 ± 0.005	2.02 ± 0.029
CUGAGU	2.052 ± 0.016	2.058 ± 0.015
CUUAGC	2.008 ± 0.019	2.01 ± 0.08
CUUAGA	2.03 ± 0.01	2.04 ± 0.029
CUUAGU	2.01 ± 0.0085	2.014 ± 0.0092
CUUAGG	2.041 ± 0.018	2.052 ± 0.014
UUUCCC	2.043 ± 0.0052	2.02 ± 0.075
UUUCCA	2.009 ± 0.0042	2.01 ± 0.027
GUGGGU	1.98 ± 0.022	2 ± 0.045
GUGGGG	1.94 ± 0.026	2.03 ± 0.028
UUUAGU	1.957 ± 0.0051	1.99 ± 0.015
UUUAGG	1.879 ± 0.012	2 ± 0.045
UUUAGA	1.99 ± 0.02	2.03 ± 0.025
UUUAGC	1.998 ± 0.005	2 ± 0.044
UUUAAC	1.978 ± 0.011	1.99 ± 0.028
UUUAAA	1.934 ± 0.0037	1.97 ± 0.047
UUUAAU	1.975 ± 0.0038	1.988 ± 0.014
AUGAUC	2.07 ± 0.028	2.06 ± 0.032
AUGAUA	1.946 ± 0.017	2.002 ± 0.019
